Test results taken from the supplement of paper PMC9170038.

System: MS2 coat protein
Test: apparent KD of MS2 coat protein; designed switch direction (-1 OFF switch, 1 ON switch): -1; higher = weaker reporter binding
Outline: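 Three titration conditions were used: no input, 200 uM small-molecule ligand, and an oligonucleotide input. In each, SNAP-549-labelled MS2 coat protein was raised from 0.7 or 1.5 nM, doubling, to 3 µM over designed RNA switches transcribed on Illumina chips by stalled E. coli RNA polymerase. Curve fits of normalised cluster fluorescence gave values whose per-design median over clusters is the apparent KD.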

[1] = Eterna round: R95, input ligand: microRNA oligo, concentration not stated
[2] = Eterna round: R95, input ligand: FMN 200 uM
[3] = Eterna round: R95, input ligand: none
[4] = input ligand: microRNA oligo, concentration not stated

Sequence | apparent KD of MS2 coat protein (input ligand: FMN 200 uM) | apparent KD of MS2 coat protein (input ligand: none) | apparent KD of MS2 coat protein [1] | further results
UUUACAAGCUUUUGAUCCCACAUGAGGAUCACCCAUGUUGCUGCCGUGAGGUAGCAUUUAACAAAUGCUCGUCUUAU [JL TOV1 3.54] (Eterna round: R97, puzzle: Sensor, turn-off variant 1) | 404 nM | 1380 nM |  | 
UAAACCAGAGGAUAUGCGAAUAAAUAAAACUUUUUUUUUUAACAUGAGGAUCACCCAUGUAGAAGGCUGCAAAU [Ex2 #33] (Eterna round: R97, puzzle: Exclusion 2) | 30 nM | 38.9 nM |  | 
GGUUGACAUGAGGAUCACCCAUGUGAGGAUAUCGGCUGGUACGUGUUGGCUGGCAUCUCGAGAAGGCACAUAGG [Exclusion 1 V59] (puzzle: Exclusion 1) |  |  | 155 nM | 
UAACAAGCUUAAAGAUCCUACAUGAGGAUCACCCAUGUGCUCGUCUUAUAACGUACUGUGACGAAAGUCACGGUACG [JL TOV1 3.14] (Eterna round: R97, puzzle: Sensor, turn-off variant 1) | 348 nM | 395 nM |  | 
AUAAUGUGAGGAUAUCAGUCGACUAGCGAUAGCUAGUCGACUGAGAAGGCACAUGAGGAUCACCCAUGUGUUUC [E4/15-A4] (Eterna round: R97, puzzle: Exclusion 4) | 44.4 nM | 16.8 nM |  | 
AGAAAUGCCCAUGGCCACAAGCUUUUUGCCUGUCUUACCACAUGAGGAUCACCCAUGUGACAUGGGCUCCUGAUAAU [Didilaeren] (puzzle: Sensor v3, turn-off variant 2) |  |  | 305 nM | apparent KD of MS2 coat protein [2]: 15.8 nM; apparent KD of MS2 coat protein [3]: 14.3 nM
GGCAAACAUGAGGAUCACCCAUGUCAGGAUAUUAGGCGAUCGUCGAUAGACGAUAGCCUGAGAAGGGACAUGCC [Mat - Exclusion 1 - Eli Mod - D16] (Eterna round: R97, puzzle: Exclusion 1) | 391 nM | 85.2 nM |  | 
AAAAGGCAAGCAUGAUCCCACAUGAGGAUCACCCAUGUGUUCGUCUUAUAGGCUGCUGAGGCUUUUGCCUCGGUGGC [LRO Sensor-off var1-05 loose mod of D91 from Mat747] (Eterna round: R97, puzzle: Sensor, turn-off variant 1) | 587 nM | 728 nM |  | 
GGUGCGUCUGUGAGGAUAUGCUGGUCCUUGGCUCGGCAGAAGGCACAUGAGGAUCACCCAUGUGGUGUCGUGCC [salish99_Bmod_ex4_058] (puzzle: Brourd's mod of Exclusion 4) |  |  | 16.7 nM | 
GAUCAACAUGAGGAUCACCCAUGUCAGGAUAUCUAUCAAGUGAGCCUAUCACAAUUUGGGAGAAGGGACCUAAU [Eternabot (L2) Solution 51] (Eterna round: R97, puzzle: Exclusion 1) | 35.1 nM | 35.8 nM |  | 
UAUAUAUAGUAAGGAUAUGUAUUAAUUUUAUCAACAGAAGGUACUGACAUGAGGAUCACCCAUGUUUUAGUGUGGGCAUGUAGA [JMF's solution 92] (Eterna round: R96, puzzle: Exclusion NG 1) |  |  |  | apparent KD of MS2 coat protein [4]: 65.2 nM
ACAAGCUUUUGCUCGUCUUACAUGAGGAUCACCCAUGUCGGAUGAUCGCUUGCGUCCGGCGUCUGAGCCGUGACGGU [Sensor, turn off variant MOD of sellena. cleaned up dot.] (Eterna round: R97, puzzle: Sensor, turn-off variant 1) | 15.3 nM | 15 nM |  | 
AGUACUAACACGCUUGUGUUAGUACAAUAAGCUUGUGAAACAUGAGGAUCACCCAUGUCCUCAUAAGCUCGUCUUAU [salish99_TOv2_r3_072] (puzzle: Sensor v3, turn-off variant 2) |  |  | 654 nM | apparent KD of MS2 coat protein [2]: 17 nM; apparent KD of MS2 coat protein [3]: 15.9 nM
CUCGUGGUGAAGGAUAUCCGCGAGAAAAUAAAAGGAGAAGGUCACACAUGAGGAUCACCCAUGUGAUGAAGAAA [Anesanza] (puzzle: Exclusion 6) |  |  | 11.6 nM | apparent KD of MS2 coat protein [2]: 16.4 nM; apparent KD of MS2 coat protein [3]: 11.9 nM
ACUUACUGAGGAUAUACAUAGAUUUACAUGAGGAUCACCCAUGUUCCUCUAAGUAUAUAUGUAGAAGGCAGAAGAU [Mat - Exclusion 5 - JL Mod - D39] (Eterna round: R97, puzzle: Exclusion 5) | 202 nM | 116 nM |  | 
CCACGACAUGAGGAUCACCCAUGUGAGGAUAUGGCCUGAAAAGCGUGAGCUGAAUCAAUCAGAAGGCGCGUGGG [salish99_ex1_r4_059_4A's] (Eterna round: R97, puzzle: Exclusion 1) | 109 nM | 42 nM |  | 
AAUUAAUGAGGAUAUACAGUGUAAAACAUGAGGAUCACCCAUGUUCUUCAAUUAGUAUUUGUAGAAGGCAUAGGUA [JR_Ex5_Sub093] (Eterna round: R97, puzzle: Exclusion 5) | 32 nM | 61.4 nM |  | 
GGCAUAAACGAGGAUAUCGUAUCGGAAACGAUACGAGAAGGUGUAACAUGAGGAUCACCCAUGUUCCUCAAGCC [Mat - Exclusion 6 - Eli Mod - D58] (puzzle: Exclusion 6) |  |  | 38.1 nM | 

Sequence | apparent KD of MS2 coat protein (input ligand: FMN 200 uM) | apparent KD of MS2 coat protein (input ligand: none) | apparent KD of MS2 coat protein [1] | further results
ACAAGCUCUGUUGGGUGGUACAUGAGGAUCACCCAUGUUUUGCUCGUCUUGUGGGCCCGGGCCCGCGGCCCGGGCCC [-41.7, -69.7, A 12%] (Eterna round: R97, puzzle: Sensor, turn-off variant 1) | 513 nM | 807 nM |  | 
GAUUAUGCGAGCUUUAGGGACAUGAGGAUCACCCAUGUUCGUCUUAUUAGUCUGAAUGCACUGACAUACCUAAAUCU [JMF 75] (puzzle: Sensor v3, turn-off variant 1) |  |  | 17.7 nM | apparent KD of MS2 coat protein [2]: 16.2 nM; apparent KD of MS2 coat protein [3]: 16.1 nM
CUGAGUUGAGGAUAUACAUGAGGAUCACCCAUGUAAAGUAGCUUGCGUACAGGCAGAUGUAGAAGGCAAUUCGG [Mod of JL 3 - Jieux - Exclusion 3] (Eterna round: R97, puzzle: Exclusion 3) | 37.6 nM | 24.5 nM |  | 
CGUGGACAUAACAAGCUUUACAUGAGGAUCACCCAUGUGAUCAUGCUCGUCUUAUGGUCCACGAAUUAAUUAAUUAG [Stov1/6-C2] (Eterna round: R97, puzzle: Sensor, turn-off variant 1) | 19.2 nM | 18.3 nM |  | 
AUUUUAUAACAAGGAUAUACUAAACAUGAGGAUCACCCAUGUAAUAUUAUGAGUGAGAGAGAGAAGUAGAAGGUGUAUUAUUUU [JMF solution 1] (Eterna round: R96, puzzle: Exclusion NG 2) |  |  |  | apparent KD of MS2 coat protein [4]: 97.4 nM
AGUAACCGUCACGAAAGUGAUGGUUACGCAAGCAAAUGUACAUGAGGAUCACCCAUGUCCUCAAUUGCUCGUCUUAU [Sensor 3 - 51] (puzzle: Sensor v3, turn-off variant 2) |  |  | 175 nM | apparent KD of MS2 coat protein [2]: 102 nM; apparent KD of MS2 coat protein [3]: 114 nM
UGUUGUUACGCAGGAUAUGAGGAUCACCCAUAUUAGGAUAUCGAAAGAGAAUUUCUGAGGAUCACCCAGAAGGGCGGGUUAACA [pwkr exNG2 2xF5 2xFMN.36] (Eterna round: R96, puzzle: Exclusion NG 2) | 118 nM | 47.3 nM |  | apparent KD of MS2 coat protein [4]: 38.5 nM
GUGUGCAGACGGAGAUCCUACAUGAGGAUCACCCAUGUCUCACUAGCUUUUUGCUCGUCUUAUCCUCCUCUGUUCUC [Elimod 26 - Jieux - Sensor, turn-off variant 1] (Eterna round: R97, puzzle: Sensor, turn-off variant 1) | 295 nM | 497 nM |  | 
CUCUUGUUAGGAUAUCAAACCGGCGGCGGAGCCGCCGGAAGUGAGAAGGGACAUGAGGAUCACCCAUGUAAGAA [Maorgees] (puzzle: Exclusion 4) |  |  | 56.3 nM | 
ACUUAUAGAGGAUAUACAGUUUAUUACAUGAGGAUCACCCAUGUUCUUCAAUGUAUAUAAGUAGAAGGCUAAGGAA [EX-5 Malc#5] (Eterna round: R96, puzzle: Exclusion 5) |  |  |  | apparent KD of MS2 coat protein [4]: 33.7 nM
UCAUGGUAGCAGGAUAUGCUUGUUUUUUUUUUUGCAGAAGGGCUUACAUGAGGAUCACCCAUGUGUUAGGUCUA [JR_E6_Sub067] (puzzle: Exclusion 6) |  |  | 27.6 nM | 
GCACGGUAAGUGAGGAUAUACCUCUGGAUACAGAGGUAGAAGGCACAUGAGGAUCACCCAUGUCUAAGCCGUGC [Fiskers BMX 4 - 83] (puzzle: Brourd's mod of Exclusion 4) |  |  | 14.7 nM | 
GCCGUCAAUGUGAGGAUAUGCCUAUGGAUACGUAGGCAGAAGGCACAUGAGGAUCACCCAUGUCCAAAGACGGC [JL-BMX4-4.31 Eli mod] (Eterna round: R97, puzzle: Brourd's mod of Exclusion 4) | 2170 nM | 200 nM |  | 
GGUCCGUGUGUGAGGAUAUGCUGGUCCUUGGAUCAGCAGAAGGCACAUGAGGAUCACCCAUGUGGUGUCGGACC [Mat - Exclusion 4 - Eli Mod - D33] (Eterna round: R97, puzzle: Brourd's mod of Exclusion 4) | 24.6 nM | 361 nM |  | 
AGUACUAACACGGGAGUGUUAGUACAAUAAGCUUGUGAAACAUGAGGAUCACCCAUGUCCUCAUAAGCUCGUCUUAU [salish99_TOv2_r3_060] (puzzle: Sensor v3, turn-off variant 2) |  |  | 717 nM | apparent KD of MS2 coat protein [2]: 16.6 nM; apparent KD of MS2 coat protein [3]: 13.8 nM
UGAAAGCUAGGAUAUACAUGAGGAUCACCCAUGUACCGGCUUGGCCCUGGUCCAAAGUGUAGAAGGAGCACGCC [Reedcedima] (puzzle: Exclusion 3) |  |  | 24.8 nM | 
UAGAUGGGAGGAUAUGCGUAGAUACGGAUUCGUGUAGUGCUACAUGAGGAUCACCCAUGUAGAAGGCCCGUCUU [JL-ex2-2.28 Mayanne mod] (puzzle: Exclusion 2) |  |  | 13.9 nM | 
